{"source": "patent US20240247058A1", "about": "(published 2024)", "key": {"mouse ICOS ligand": {"biological_target": "T1, mouse ICOS ligand (mouse, UniProt Q9JHJ8 47-279, limits assumed)", "T1 construct": "the construct is not described; also called mICOSL", "T1 sequence (looked up)": "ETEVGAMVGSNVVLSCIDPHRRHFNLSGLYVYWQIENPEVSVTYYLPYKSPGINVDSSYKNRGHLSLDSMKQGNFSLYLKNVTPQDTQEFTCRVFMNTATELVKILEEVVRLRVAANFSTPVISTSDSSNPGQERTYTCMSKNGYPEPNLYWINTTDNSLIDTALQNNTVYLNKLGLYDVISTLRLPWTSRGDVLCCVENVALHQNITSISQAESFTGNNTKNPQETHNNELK", "experiment": "binding ELISA on human and mouse ICOS ligands (FIG. 11)"}, "[1]": {"biological_target": "T2, human Tumour Necrosis Factor alpha (hTNFα) (human, UniProt P01375 77-233)", "T2 construct": "Coated on ELISA plates, amine-coupled to the BIAcore chip, or biotinylated on Octet streptavidin sensors; soluble in the L929 assay; also called rhTNFα; hTNF-alpha", "T2 sequence (P01375 77-233 limits assumed)": "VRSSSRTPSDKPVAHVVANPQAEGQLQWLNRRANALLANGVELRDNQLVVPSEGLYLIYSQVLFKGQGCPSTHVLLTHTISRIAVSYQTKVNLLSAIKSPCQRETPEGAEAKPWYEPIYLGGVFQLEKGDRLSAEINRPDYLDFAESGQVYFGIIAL", "experiment": "statement in the legend of the Caco-2 permeability assay (FIG. 8)"}, "Mouse TNFα": {"biological_target": "T3, Mouse TNFα (mouse, UniProt P06804 80-235)", "T3 sequence (looked up)": "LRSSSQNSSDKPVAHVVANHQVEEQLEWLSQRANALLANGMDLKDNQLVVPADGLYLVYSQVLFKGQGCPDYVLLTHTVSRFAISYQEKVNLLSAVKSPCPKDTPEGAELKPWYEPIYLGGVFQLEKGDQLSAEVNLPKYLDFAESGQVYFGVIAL", "experiment": "cell-based or functional assay"}, "[2]": {"biological_target": "T2, human Tumour Necrosis Factor alpha …", "experiment": "binding profile of humanised D1 versions on hTNF-alpha (FIG. 16)"}, "[3]": {"biological_target": "T2, human Tumour Necrosis Factor alpha …", "experiment": "kinetics on hTNFα, Table 1 (instrument for Ka/Kd not stated)"}, "[4]": {"biological_target": "T2, human Tumour Necrosis Factor alpha …", "experiment": "BLI, Octet RED96, biotinylated hTNF-α on streptavidin sensors (BIAcore cell is n/a)"}, "[5]": {"biological_target": "T2, human Tumour Necrosis Factor alpha …", "experiment": "cell-based or functional assay"}, "[6]": {"biological_target": "T2, human Tumour Necrosis Factor alpha …", "experiment": "BLI, Octet RED96, biotinylated hTNF-α on streptavidin sensors"}, "[7]": {"biological_target": "T2, human Tumour Necrosis Factor alpha …", "experiment": "SPR, BIAcore T200, TNFα amine-coupled to chip, 1:1 Langmuir fit"}, "human ICOS ligand": {"biological_target": "T4, human ICOS ligand (human, UniProt O75144 19-258, limits assumed)", "T4 construct": "also called hICOSL", "T4 sequence (looked up)": "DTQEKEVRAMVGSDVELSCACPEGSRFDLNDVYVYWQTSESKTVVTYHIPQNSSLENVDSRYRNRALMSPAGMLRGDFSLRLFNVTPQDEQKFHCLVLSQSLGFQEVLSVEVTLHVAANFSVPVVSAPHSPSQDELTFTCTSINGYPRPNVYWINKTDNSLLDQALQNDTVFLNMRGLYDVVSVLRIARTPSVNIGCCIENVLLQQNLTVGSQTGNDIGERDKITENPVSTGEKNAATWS", "experiment": "binding ELISA on human and mouse ICOS ligands (FIG. 11)"}}}
{"binder": "ICOS VNAR CC3-Fc-CC3 (Fc fusion, Human IgG1 Fc; also called anti-ICOSL Quad-X™ construct) TRVDQTPRTATKETGESLTINCVLTDTEYGLFSTSWFRKNPGTTDWERMSIGGRYVESVNKGAKSFSLRIKDLTVADSATYYCKALGWWPPAFPHWYDGAGTVLTVNGGGGSGGGGRTEPKSSDKTHTCPPCPAPEAAGAPSVFLFPPKPKDTLMISRTPEVTCVVVDVSHEDPEVKFNWYVDGVEVHNAKTKPREEQYNSTYRVVSVLTVLHQDWLNGKEYKCKVSNKALPAPIEKTISKAKGQPREPQVYTLPPSREEMTKNQVSLTCLVKGFYPSDIAVEWESNGQPENNYKTTPPVLDSDGSFFLYSKLTVDKSRWQQGNVFSCSVMHEALHNHYTQKSLSLSPGKTAAAATAAAATAAAATAAAATRVDQTPRTATKETGESLTINCVLTDTEYGLFSTSWFRKNPGTTDWERMSIGGRYVESVNKGAKSFSLRIKDLTVADSATYYCKALGWWPPAFPHWYDGAGTVLTVN", "values": [{"measurement": "binding result", "setting": "mouse ICOS ligand", "value": "binds"}]}
{"binder": "TNF VNAR B4 (VNAR, Nurse shark VNAR single domain, expressed with His and myc tags) VNAR: ARVDQTPQTITKETGESLTINCVLRDSNCALSSMYWYRKKSGSTNEESISKGGRYVETVNSGSKSFSLRINDLTVEDSGTYRCKVYIPCIDELVYMISGGTSGPIHDVYGGGTVVTVNA", "values": [{"measurement": "binding result", "setting": "[1]", "value": "binds"}]}
{"binder": "TNF S17-Quad-X™ with (Gly4Ser)5 (Fc fusion) ASVNQTPRTATKETGESLTINCVLTDTHAKVFTTSWFRKNPGTTDWERMSIGGRYVESVNKGAKSFSLRIKDLTVADSATYICRAGGYLSQPRVYWDVYGAGTVLTVNGGGGSGGGGRTEPRGPTIKPCPPCKCPAPNLLGGPSVFIFPPKIKDVLMISLSPIVTCVVVDVSEDDPDVQISWFVNNVEVHTAQTQTHREDYNSTLRVVSALPIQHQDWMSGKEFKCKVNNKDLPAPIERTISKPKGSVRAPQVYVLPPPEEEMTKKQVTLTCMVTDFMPEDIYVEWTNNGKTELNYKNTEPVLDSDGSYFMYSKLRVEKKNWVERNSYSCSVVHEGLHNHHTTKSFSRTPGKGGGGSGGGGSGGGGSGGGGSGAHSASVNQTPRTATKETGESLTINCVLTDTHAKVFTTSWFRKNPGTTDWERMSIGGRYVESVNKGAKSFSLRIKDLTVADSATYICRAGGYLSQPRVYWDVYGAGTVLTVN", "values": [{"measurement": "fold improvement of in vitro neutralizing potency over S17-Fc", "setting": "Mouse TNFα", "value": "~40", "unit": "fold"}]}
{"binder": "SoloMER™ VNAR D1-v2 (VNAR, Humanised D1 VNAR with His tag; also called soloMER D1-v2) VNAR: ARVDQSPSSLSASVGDRVTITCVLRDSHCATSSTYWYRKKSGSTNEESISKGGRYVETVNSGSKSFTLTISSLQPEDFATYYCASECQYGLAEYDVYGGGTKVEIKH", "values": [{"measurement": "binding result", "setting": "[2]", "value": "binds"}]}
{"binder": "SoloMER™ VNAR D1-v3 (VNAR, Humanised D1 VNAR with His tag) VNAR: ARVDQSPSSLSASVGDRVTITCVLRDSHCATSSTYWYQQKPGKTNEESISKGGRYVETVNSGSKSFTLTISSLQPEDFATYYCASECQYGLAEYDVYGGGTKVEIKH", "values": [{"measurement": "binding result", "setting": "[2]", "value": "binds"}]}
{"binder": "SoloMER™ VNAR D1-v4 (VNAR, Humanised D1 VNAR with His tag) VNAR: ARVDQSPSSLSASVGDRVTITCVLRDSHCATSSTYWYRKKPGSTNEESISKGGRFSGSGSSGSKSFTLTISSLQPEDFATYYCASECQYGLAEYDVFGQGTKVEIKH", "values": [{"measurement": "binding result", "setting": "[2]", "value": "binds"}]}
{"binder": "TNF VNAR D1-BA11-B4 (VNAR, Tandem VNAR trimer with His and myc tags) ARVDQTPQTITKETGESLTINCVLRDSHCATSSTYWYRKKSGSTNEESISKGGRYVETVNSGSKSFSLRINDLTVEDSGTYRCASECQYGLAEYDVYGGGTVVTVNGGGGSGGGGSGGGGSGGGGSGAHSTRVDQSPSSLSASVGDRVTITCVLTDTSYPLYSTYWYRKNPGSSNKEQISISGRYSESVNKGTKSFTLTISSLQPEDSATYYCRAMSTNIWTGDGAGTKVEIKGGGGSGGGGSGGGGSGGGGSGAHSARVDQTPQTITKETGESLTINCVLRDSNCALSSMYWYRKKSGSTNEESISKGGRYVETVNSGSKSFSLRINDLTVEDSGTYRCKVYIPCIDELVYMISGGTSGPIHDVYGGGTVVTVNHHHHHHHEQKLISEEDL", "values": [{"measurement": "koff", "setting": "[3]", "value": 0.006, "unit": "s⁻¹"}, {"measurement": "kon", "setting": "[3]", "value": "1.7e+06", "unit": "M⁻¹ s⁻¹"}, {"measurement": "Kd", "setting": "[4]", "value": 0.33, "unit": "nM"}]}
{"binder": "TNF VNAR D1-BA11-D1 (VNAR, Tandem VNAR trimer with His and myc tags) ARVDQTPQTITKETGESLTINCVLRDSHCATSSTYWYRKKSGSTNEESISKGGRYVETVNSGSKSFSLRINDLTVEDSGTYRCASECQYGLAEYDVYGGGTVVTVNGGGGSGGGGSGGGGSGGGGSGAHSTRVDQSPSSLSASVGDRVTITCVLTDTSYPLYSTYWYRKNPGSSNKEQISISGRYSESVNKGTKSFTLTISSLQPEDSATYYCRAMSTNIWTGDGAGTKVEIKGGGGSGGGGSGGGGSGGGGSGAHSARVDQTPQTITKETGESLTINCVLRDSHCATSSTYWYRKKSGSTNEESISKGGRYVETVNSGSKSFSLRINDLTVEDSGTYRCASECQYGLAEYDVYGGGTVVTVNHHHHHHHEQKLISEEDL", "values": [{"measurement": "ND50 (nM), neutralisation of hTNF-alpha cytotoxicity in L929 cells", "setting": "[5]", "value": 0.38, "unit": "nM"}, {"measurement": "koff", "setting": "[3]", "value": 0.0002, "unit": "s⁻¹"}, {"measurement": "kon", "setting": "[3]", "value": "1.9e+06", "unit": "M⁻¹ s⁻¹"}, {"measurement": "Kd", "setting": "[6]", "value": 0.1, "unit": "nM"}, {"measurement": "Kd", "setting": "[7]", "value": 4, "unit": "nM"}]}
{"binder": "TNF VNAR DIMER D1-B4 (VNAR) ARVDQTPQTITKETGESLPINCVLRDSHCATSSTYWYRKKSGSTNEESISKGGRYVETVNSGSKSFSLRINDLTVEDSGTYRCASECQYGLAEYDVYGGGTVVTVNGGGGSGGGGGSGAHSARVDQTPQTITKETGESLTINCVLRDSNCALSSMYWYRKKSGSTNEESISKGGRYVETVNSGSKSFSLRINDLTVEDSGTYRCKVYIPCIDELVYMISGGTSGPIHDVYGGGTVVTVNAAAHHHHHHGAAEQKLISEEDL", "values": [{"measurement": "ND50 (nM), neutralisation of hTNF-alpha cytotoxicity in L929 cells", "setting": "[5]", "value": 8, "unit": "nM"}, {"measurement": "koff", "setting": "[3]", "value": 0.0005, "unit": "s⁻¹"}, {"measurement": "kon", "setting": "[3]", "value": 270000, "unit": "M⁻¹ s⁻¹"}, {"measurement": "Kd", "setting": "[4]", "value": 15.9, "unit": "nM"}]}
{"binder": "ICOS VNAR CC3-Fc-2D4 (Fc fusion, Human IgG1 Fc; also called anti-ICOSL Quad-X™ construct) TRVDQTPRTATKETGESLTINCVLTDTEYGLFSTSWFRKNPGTTDWERMSIGGRYVESVNKGAKSFSLRIKDLTVADSATYYCKALGWWPPAFPHWYDGAGTVLTVNGGGGSGGGGRTEPKSSDKTHTCPPCPAPEAAGAPSVFLFPPKPKDTLMISRTPEVTCVVVDVSHEDPEVKFNWYVDGVEVHNAKTKPREEQYNSTYRVVSVLTVLHQDWLNGKEYKCKVSNKALPAPIEKTISKAKGQPREPQVYTLPPSREEMTKNQVSLTCLVKGFYPSDIAVEWESNGQPENNYKTTPPVLDSDGSFFLYSKLTVDKSRWQQGNVFSCSVMHEALHNHYTQKSLSLSPGKTAAAATAAAATAAAATAAAATRVDQTPRTATKETGESLTINCVLTDTDYGLFSTSWFRKNPGTTDWERMSIGGRYVESVNKGAKSFSLRIKDLTVADSATYYCKAFTWPWEWPDRWFRPWYDGAGTVLTVN", "values": [{"measurement": "binding result", "setting": "mouse ICOS ligand", "value": "binds"}, {"measurement": "binding result", "setting": "human ICOS ligand", "value": "binds"}]}
{"binder": "TNF VNAR DIMER D1-D1 (VNAR) ARVDQTPQTITKETGESLTINCVLRDSHCATSSTYWYRKKSGSTNEESISKGGRYVETVNSGSKSFSLRINDLTVEDSGTYRCASECQYGLAEYDVYGGGTVVTVNGGGGSGGGGGSGAHSARVDQTPQTITKETGESLTINCVLRDSHCATSSTYWYRKKSGSTNEESISKGGRYVETVNSGSKSFSLRINDLTVEDSGTYRCASECQYGLAEYDVYGGGTVVTVNAAAHHHHHHGAAESKLISEEDL", "values": [{"measurement": "ND50 (nM), neutralisation of hTNF-alpha cytotoxicity in L929 cells", "setting": "[5]", "value": 7, "unit": "nM"}, {"measurement": "koff", "setting": "[3]", "value": 0.000316, "unit": "s⁻¹"}, {"measurement": "kon", "setting": "[3]", "value": 500000, "unit": "M⁻¹ s⁻¹"}, {"measurement": "Kd", "setting": "[4]", "value": 0.6, "unit": "nM"}]}
